Reference: US20250313627A1 (FUSE BIOTHERAPEUTICS, published 2025)

B1: FUSE-112 (2A11 VHH-human-Fc fusion protein) (Fc fusion)
chain: QVQLQESGGGSVPAGGSLRLSCAASGSTYSANCMGWFRQAPGKEREEVASMSIRSGRTYYSDSVKGRFTISQDGSKNTLYLQLNSLKAEDTALYYCAAAYGGSRCVYNYRGQGTQVTVSS
notes: VHH-human-Fc fusion; non-humanized 2A11; also called 2A11-Fc; not shown: human Fc
B2: FUSE-179 (5A1 VHH-human-Fc fusion protein) (Fc fusion)
chain: QVQLQESGGGSVQAGGSLKLSCTASGYTNRLKCMGWFRQAPGKEREEIATISTGTGNTYYADSVKGRFTFSQDKVKNTVYLQMNTLKPDDTGMYYCAADVRPDGTTCHYNSGGQGTQVTVSS
notes: VHH-human-Fc fusion; non-humanized 5A1; not shown: human Fc

Key:
[1] = molecular target: T1, human ROR1 (Receptor Tyrosine Kinase-Like Orphan Receptor 1) on the cell surface (human, UniProt Q01973 30-937); assay: flow cytometry, LS174T cells expressing human ROR1 (low density)
T1 construct: whole, on cells; engineered into B16-F10 (high density) and LS174T (low density) cells; also called B16-F10-ROR1-H; LS174T-ROR1-L
T1 sequence (Q01973 30-937): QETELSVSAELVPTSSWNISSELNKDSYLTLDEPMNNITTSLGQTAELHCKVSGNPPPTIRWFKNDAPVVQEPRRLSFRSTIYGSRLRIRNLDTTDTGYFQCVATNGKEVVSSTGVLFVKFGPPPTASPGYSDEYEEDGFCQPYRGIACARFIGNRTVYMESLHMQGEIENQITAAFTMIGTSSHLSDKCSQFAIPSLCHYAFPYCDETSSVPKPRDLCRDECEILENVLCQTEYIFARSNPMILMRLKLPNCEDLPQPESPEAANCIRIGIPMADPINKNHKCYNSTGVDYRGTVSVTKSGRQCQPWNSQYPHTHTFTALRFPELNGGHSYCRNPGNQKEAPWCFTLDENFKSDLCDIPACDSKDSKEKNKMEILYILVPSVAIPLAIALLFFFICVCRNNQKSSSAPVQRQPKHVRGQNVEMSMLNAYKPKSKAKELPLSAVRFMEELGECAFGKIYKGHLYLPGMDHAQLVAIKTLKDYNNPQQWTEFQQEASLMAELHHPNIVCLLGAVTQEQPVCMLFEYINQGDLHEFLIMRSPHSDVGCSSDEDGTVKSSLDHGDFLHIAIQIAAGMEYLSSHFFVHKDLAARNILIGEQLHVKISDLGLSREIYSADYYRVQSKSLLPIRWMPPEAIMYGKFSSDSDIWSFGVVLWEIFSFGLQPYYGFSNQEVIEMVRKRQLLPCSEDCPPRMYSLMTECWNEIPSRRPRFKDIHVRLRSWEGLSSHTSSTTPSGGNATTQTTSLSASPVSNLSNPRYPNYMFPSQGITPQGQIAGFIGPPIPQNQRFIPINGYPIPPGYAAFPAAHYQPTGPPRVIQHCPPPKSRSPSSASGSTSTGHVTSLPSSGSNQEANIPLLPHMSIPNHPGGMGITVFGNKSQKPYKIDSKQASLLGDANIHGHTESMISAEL
Experimental: (§1) As shown in the tables below, mouse B16-F10 melanoma (Tables 9A-9F) or LS174T human colorectal adenocarcinoma (Tables 9G-9H) cells genetically engineered to express human ROR1 at high and low densities, respectively, were stained for flow cytometric analysis with 100 nM of humanized variants of the ROR1 specific VHHs, 5A1 or 2A11 in either a VHH-Fc format or the Ac13 format shown in FIG. 1. Cells were analyzed on a flow cytometer after the primary test article was fluorescently tagged with a goat anti human IgG-Fc specific PE secondary antibody. The positive control used was PE conjugated anti-human ROR1 clone 2A2. Negative controls included a PE labeled mouse IgG Ab, the secondary antibody only, the combination of a Hen Egg Lysozyme (HEL) specific antibody plus goat anti human IgG-Fc specific PE and Fluorescence Minus One (FMO). Other controls included the non-humanized version of 5A1-Fc (FUSE179), 2A11-Fc (FUSE112) and 5A1-Ac13 (FUSE488). Humanized variants were generated using computational design (FUSE489, FUSE497-498, FUSE563, FUSE569-570, and BI-HU9-VHH11-33), a yeast display library in which mutations were inserted into the Vernier zone residues of human framework indicated in GenBank accession number M99660 (FUSE524-525, FUSE589, FUSE597-598, FUSE537, FUSE661-662, BI-HU9-HK and BI-HU9-HK-1), and a second yeast display library in which mutations were inserted into the Vernier zone residues of human framework indicated in GenBank accession number AWH66715 and amino acid position 103 within CDR3 (FUSE559, FUSE590-596, BI-HU9-VH9-1, FUSE654-655 and FUSE661-662. Affinity matured variants of FUSE559 were also generated using computational design (F22158101-21; Table 9H).

[2] = molecular target: T1, human ROR1 (Receptor Tyrosine …); assay: flow cytometry, B16-F10 cells expressing human ROR1 (high density)
Experimental: as §1

[3] = molecular target: T1, human ROR1 (Receptor Tyrosine …); assay: as above; remark: listed apart in the source
Experimental: as §1

[4] = molecular target: T1, human ROR1 (Receptor Tyrosine …); assay: as above; remark: listed apart in the source
Experimental: as §1

[5] = molecular target: T2, recombinant His tagged human ROR1 (human, UniProt Q01973 30-403, limits assumed); assay: BLI (Octet), VHH-Fc loaded on the biosensor, His tagged ROR1 in solution
T2 construct: Analyte in the BLI assay; also called Human ROR1-His; recombinant ROR1
T2 sequence (Q01973 30-403 limits assumed): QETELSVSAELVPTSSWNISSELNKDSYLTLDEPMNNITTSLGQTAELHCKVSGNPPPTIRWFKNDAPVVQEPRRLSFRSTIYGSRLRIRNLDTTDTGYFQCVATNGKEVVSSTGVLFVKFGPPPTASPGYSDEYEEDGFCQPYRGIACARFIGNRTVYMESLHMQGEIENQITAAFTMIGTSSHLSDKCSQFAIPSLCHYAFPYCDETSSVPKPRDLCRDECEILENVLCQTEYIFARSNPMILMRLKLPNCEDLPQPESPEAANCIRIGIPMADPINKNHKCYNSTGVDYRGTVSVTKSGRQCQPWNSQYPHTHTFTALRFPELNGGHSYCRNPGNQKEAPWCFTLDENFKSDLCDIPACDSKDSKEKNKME

[6] = molecular target: T2, recombinant His tagged human ROR1; assay: BLI (Octet), FUSE protein on the tip, His tagged ROR1 in solution; 2A11 parental VHH-Fc
Experimental: (§2) As shown in FIGS. 5A-5D, the binding affinities (KD) of TCEs for ROR1 were assessed. We examined the magnitude by which several TCEs and mutants thereof bind to recombinant ROR1. Kinetic binding graphs were generated via Bio-Layer Interferometry (BLI) using an Octet system. For each TCE, the biosensor tips were coated with FUSE proteins at 15 μg/ml and probed with either recombinant His tagged ROR1 at concentrations ranging from 100 pM to 10 μM. […] The binding affinity (KD), on rate (k-on) and off rate (k-dis), are summarized for ROR1 in FIG. 5D.
(§3) We further examined the impact of mutating the cysteine residues located in CDR1 and CDR3 of 2A11 VHH and 5A1 VHH.

[7] = molecular target: T2, recombinant His tagged human ROR1; assay: BLI (Octet), VHH-Fc loaded on the biosensor, His tagged ROR1 in solution; column 'kdis(1/s)'
[8] = molecular target: T1, human ROR1 (Receptor Tyrosine …); assay: flow cytometry, LS174T cells expressing human ROR1 (low density); remark: listed apart in the source
Experimental: as §1

[9] = molecular target: T1, human ROR1 (Receptor Tyrosine …); assay: flow cytometry, B16-F10 cells expressing human ROR1 (high density); remark: listed apart in the source
[10] = molecular target: T1, human ROR1 (Receptor Tyrosine …); assay: as above; remark: listed apart in the source
Experimental: as §1

[11] = molecular target: T2, recombinant His tagged human ROR1; assay: BLI (Octet), VHH-Fc loaded on the biosensor, His tagged ROR1 in solution; remark: listed apart in the source
[12] = molecular target: T2, recombinant His tagged human ROR1; assay: BLI (Octet), FUSE protein on the tip, His tagged ROR1 in solution; 5A1 parental VHH-Fc
Experimental: as §2, §3

[13] = molecular target: T2, recombinant His tagged human ROR1; assay: BLI (Octet), VHH-Fc loaded on the biosensor, His tagged ROR1 in solution; column 'kdis(1/s)'; remark: listed apart in the source
[14] = molecular target: T1, human ROR1 (Receptor Tyrosine …); assay: flow cytometry on B16-F10 cells engineered to express human ROR1, secondary antibody to the IgG1 Fc
Experimental: As shown in FIG. 15 the apparent binding affinity (EC50-binding) of the ROR1 specific VHH-Fc incorporating either the non humanized VHH clone 5A1 (FUSE179; black circle), the humanized clone 5A1-FA9-HK1 (FUSE559; black square) or the humanized clone 5A1-HK1 (FUSE524; black triangle) was calculated. Shown is a non-linear x-y plot of binding to B16-F10 cell engineered to express human ROR1 relative to the concentration of test article used for staining. A Hen Egg Lysozyme (HEL)-specific antibody was used as the negative isotype control. Binding was measured via flow cytometry using a fluorescently labeled secondary antibody specific for the Fc domain of IgG1. A summary table of EC50s and maximum MFI is shown beneath under the graph.

[15] = molecular target: T2, recombinant His tagged human ROR1; assay: SPR (Biacore 8K), recombinant human ROR1 amine-coupled on a CM5 chip (4400 RU), analyte 200nM, 1:1 binding fit [table below it]
Experimental: (§4) Protein test article binding to recombinant human ROR1 (Acro Biosystems, RO1-H522y) was detected on a BIAcore 8K (Cytiva) biosensor system using an SPR assay. Briefly, a carboxymethylated CM5 sensor chip was activated with 1:1 mixture of 0.4 M N-ethyl-N-(3-dimethylaminopropyl) carbodiimide and 0.1 M′ N-hydroxysuccinimide. Recombinant human ROR1 in 10 mM NaOAc (pH5) was then immobilized on the sensor chip by amine-coupling according to the manufacturer's instructions to yield the stable RU of 4400. Unreacted sites were blocked with 1M ethanolamine/HCl (pH 8). Control flow cells (blank) were activated and blocked in the absence of ROR1. Flow cells were routinely equilibrated with running buffer (PBS, 0.005% surfactant P20). Test article proteins used for assessment of binding to recombinant human ROR1 binding were diluted in HBS-EP running buffer and injected into the sensor chip at different concentrations. […] Data from duplicate assays were modeled for binding equilibrium and dot plots for 200 nM of protein test article was calculated. Association constant (ka), dissociation constant (kd) and binding affinity (KD=kd/ka) were generated from integrated software in the BIAcore 8K system.
(§5) Shown are sensorgrams of surface plasmon resonance (SPR) data generated via Biacore analysis. A summary table of binding affinity (KD), on rate (k-a) and off rate (kd) is shown below FIG. 16B.

[16] = molecular target: T2, recombinant His tagged human ROR1; assay: SPR (Biacore 8K), recombinant human ROR1 amine-coupled on a CM5 chip (4400 RU), analyte 200nM, 1:1 binding fit; column 'kd (1/s)' [table below it]
Experimental: as §4, §5

[17] = molecular target: T2, recombinant His tagged human ROR1; assay: SPR (Biacore 8K), recombinant human ROR1 amine-coupled on a CM5 chip (4400 RU), analyte 200nM, 1:1 binding fit; column '1:1 binding ka (1/Ms)' [table below it]
Experimental: as §4, §5

| Binder | MFI [1] | MFI [2] | MFI [3] | MFI [4] | Kd [5] [nM] | kon [5] [M⁻¹ s⁻¹] | Kd [6] [nM] | koff [7] [s⁻¹] | MFI [8] | MFI [9] | MFI [10] | Kd [11] [nM] | kon [11] [M⁻¹ s⁻¹] | Kd [12] [nM] | koff [13] [s⁻¹] | EC50 [14] [nM] | Max MFI [14] [MFI] | Kd [15] [nM] | koff [16] [s⁻¹] | kon [17] [M⁻¹ s⁻¹] |
| --- | --- | --- | --- | --- | --- | --- | --- | --- | --- | --- | --- | --- | --- | --- | --- | --- | --- | --- | --- | --- |
| B1 | 4340 | 11900 | 7840 | 208000 | 42.4 | 43100 | ~4 | 0.00183 | – | – | – | – | – | – | – | – | – | – | – | – |
| B2 | 836 | 8480 | 4480 | 93800 | – | – | – | – | 3060 | 4220 | 3730 | 36 | 48200 | ~4 | 0.00174 | 2.04 | 4900 | 7.38 | 0.00106 | 144000 |
